Assay results taken from article PMC7137635.

Tests used:
[1] = target: GST fusion of human OPTN (aa 2-311), Q96CV9-1; assay: phage ELISA; conditions: Background correction to BSA signal was applied; read off a plot
[2] = target: p62 LIR (Homo sapiens) (UniProt Q13501); conditions: cited from earlier work

Chain of GATE-16 (P60520 1-116): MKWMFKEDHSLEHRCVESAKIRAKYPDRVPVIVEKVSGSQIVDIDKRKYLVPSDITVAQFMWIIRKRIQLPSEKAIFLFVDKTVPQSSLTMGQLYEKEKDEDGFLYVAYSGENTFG

Substance	response [1]	Kd [2]
LC3Bwt displayed on phage (from UniProt Q9GZQ8) F11L; R14L; R15N; Q19L; E22D; D23N; [26-28]I (column not resolved, see notes); K53I; K55G	0.91 OD 450 nm	–
GATE-16 (from UniProt P60520)	–	5.2 µM
